Drawing on article doi:10.1101/2024.12.05.626941, this text covers stoichiometry N for 4 substances.

Broadly, the stoichiometry N is a count of units in the complex or per binding partner.

Test in all cases: SEC
(In general: SEC sorts molecules by how far they enter the pores of the column.)

The target of experiment [1] is Physcomitrella patens adenosine kinase 2 (PpADK2) (Physcomitrella patens).
Experiment [2] addresses Zea mays adenosine kinase 1 (ZmADK1) (Zea mays).
For experiment [3], the target named is Zea mays adenosine kinase 2 (ZmADK2) (Zea mays).
The target in experiment [4] is Zea mays adenosine kinase 3 (ZmADK3) (Zea mays).

Turning to “Physcomitrella patens adenosine kinase 2 (PpADK2) (enzyme)”, in experiment [1], the stoichiometry N was 2.
The substance “Zea mays adenosine kinase 1 (ZmADK1) (enzyme)” yielded a stoichiometry N in experiment [2] of 2.
In turn, “Zea mays adenosine kinase 2 (ZmADK2) (enzyme)” showed a stoichiometry N in experiment [3] of 2.
Regarding “Zea mays adenosine kinase 3 (ZmADK3) (enzyme)”, the stoichiometry N in experiment [4] stood at 2.
